Measurements taken from patent US20150290315A1.

What was measured:
[1] = molecular target: HVEM stably expressed on B78-H1-A10 cells (UniProt Q92956); assay: cell-based or functional assay
[2] = molecular target: nectin-1 stably expressed on B78-H1-C10 cells (UniProt Q15223); assay: cell-based or functional assay
Chain of UniProt Q15223 (Q15223 31-517 limits assumed): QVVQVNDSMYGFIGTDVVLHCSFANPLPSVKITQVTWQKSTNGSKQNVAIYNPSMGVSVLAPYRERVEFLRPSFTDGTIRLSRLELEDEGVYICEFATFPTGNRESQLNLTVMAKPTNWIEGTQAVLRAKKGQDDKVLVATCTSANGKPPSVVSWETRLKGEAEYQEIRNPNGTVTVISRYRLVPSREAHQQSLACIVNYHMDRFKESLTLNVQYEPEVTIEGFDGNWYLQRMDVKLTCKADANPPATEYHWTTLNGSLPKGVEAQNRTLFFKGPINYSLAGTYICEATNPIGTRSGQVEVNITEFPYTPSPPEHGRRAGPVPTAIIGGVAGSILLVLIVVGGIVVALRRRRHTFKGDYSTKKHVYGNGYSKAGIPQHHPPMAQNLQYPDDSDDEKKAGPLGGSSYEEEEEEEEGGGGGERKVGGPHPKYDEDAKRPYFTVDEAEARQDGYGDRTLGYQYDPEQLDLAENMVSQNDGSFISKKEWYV

Chain of UniProt Q92956 (Q92956 39-283 limits assumed): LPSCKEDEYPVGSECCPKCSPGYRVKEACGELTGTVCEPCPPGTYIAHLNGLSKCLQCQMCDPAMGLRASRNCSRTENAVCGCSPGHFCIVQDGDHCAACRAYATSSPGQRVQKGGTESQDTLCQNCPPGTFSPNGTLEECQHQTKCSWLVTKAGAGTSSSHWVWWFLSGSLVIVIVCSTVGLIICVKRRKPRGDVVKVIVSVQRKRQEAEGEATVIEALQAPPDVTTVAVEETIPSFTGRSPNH

HSV-1 strain KOS glycoprotein D with the A3C mutation, as carried by the KOS-gDA3C virus (from UniProt A1Z0Q5 26-394)
entry of virus into A10 cells (plaques counted after citrate wash) [1]: 50 % reduction
entry of virus into C10 cells (plaques counted after citrate wash) [2]: 70 % reduction
